{
  "source": "patent US20160310607A1",
  "about": "“CELL TRANSPORT” (CUPID PEPTIDE COMPANY LIMITED, priority 2013, published 2016)",
  "molecules": {"B1": {"name": "Cupid B-PTEN: Cupid B fused to a 167 amino acid region (C2 region, 186-352) of human PTEN, with 6x Histidine (protein)", "chain": "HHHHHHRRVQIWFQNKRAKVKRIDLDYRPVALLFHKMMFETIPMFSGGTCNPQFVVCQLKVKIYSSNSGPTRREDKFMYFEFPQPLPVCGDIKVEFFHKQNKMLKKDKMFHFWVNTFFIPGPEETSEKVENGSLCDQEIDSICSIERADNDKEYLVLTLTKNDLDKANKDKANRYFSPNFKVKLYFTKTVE", "modifications": "FITC label", "notes": "Cupid B fused to a 167 amino acid region (C2 region, 186-352) of human PTEN, with 6x Histidine"}},
  "key": {"[1]": {"tested_on": "Dictyostelium discoideum amoeba cells", "assay": "Permeation of FITC-labelled peptides into cultured Dictyostelium cells (fluorescence microscopy)", "assay_type": "cell-based", "conditions": "FITC-labelled peptide, 20 micromolar, 1 hour", "experimental": "Peptides were labelled with Fluorescein isothiocyanate (FITC) using a FITC labeling kit as per instructions (Pierce, UK). When added to cell cultures the labeled peptides were visualized using a fluorescent microscope by exciting the FITC with a 488 nm spectral line, argon-ion laser (Excitation wavelength of 494 nm and an Emission wavelength of 518 nm).\nAX2 wild type Dictyostelium cells were grown on SM agar plates seeded with Aerobacter aerogenes bacteria (also known as Klebsiella aerogenes) as a food source.\nCupid A ([…]) and Cupid B ([…]) were chemically synthesized labelled with FITC at the amino terminal. The peptides were added to cultured eukaryotic cells of Dictyostelium discoideum amoeba for varying amounts of time up to 2 hours. Cells were then washed and prepared for examination under a fluorescent microscope (FIG. 1). The time courses of permeation were compared to the class 3 CPP, the Antennapedia peptide, pANT which was also labelled with FITC in chemical synthesis (FIG. 2)."}, "PTEN [2]": {"tested_on": "PTEN", "assay": "Streaming and aggregation of starved wild-type Dictyostelium cultures compared with the PTEN null mutant", "assay_type": "cell-based, Dictyostelium discoideum", "conditions": "10 micromolar, wild-type cells, visualised after 10 hours", "experimental": "FIG. 8. Cupid can transport large molecule cargo into the cell. Starved Dictyostelium cultures were plated into petri dishes in starvation buffer and visualised after 10 hours. In untreated wild-type (WT) cultures (A), cells stream together into aggregation centres, co-ordinated by cell to cell signaling.\nIn Dictyostelium, a genetic mutant in which the PTEN gene is absent causes marked changes in phenotype."}, "PTEN [3]": {"tested_on": "PTEN", "assay": "Inositol phospholipid levels in starving Dictyostelium cells (solvent extraction, thin layer chromatography)", "assay_type": "cell-based, Dictyostelium discoideum", "conditions": "10 micromolar, 1 hour, starving wild-type Dictyostelium", "experimental": "FIG. 9. The levels of the 4 inositol phospholipids (PI, PIP, PIP2 and PIP3) in wild-type Dictyostelium cells undergoing starvation were measured by solvent extraction of cell cultures and analysis using thin layer chromatography. The effect of Cupid B-PTEN peptide treatment (10 micromolar, 1 hour) was calculated as a percentage change in the basal (untreated) levels.\nThe PTEN protein has a phospholipase enzymatic activity that functions to remove phosphate groups from inositol-based lipids and as such is involved with maintaining the balance between varieties of inositol phospholipids present at the cell surface. In wild-type cells undergoing starvation the inositol phospholipids with 3 and 4 phosphate groups (PIP2 and PIP3) are kept low, largely due to the action of PTEN.\nWe determined the effect of Cupid B-PTEN peptide on the inositol phospholipid levels in Dictyostelium cultures. Cupid B-PTEN peptide treated cells (10 micromolar, 1 hour) alters the basal levels of inositol phospholipids in Dictyostelium cells."}, "PTEN [4]": {"tested_on": "PTEN", "assay": "Protein phosphorylation response to cyclic AMP in starving Dictyostelium cultures (antibody detection on SDS gels)", "assay_type": "cell-based, Dictyostelium discoideum", "conditions": "pre-treated for 1 hour with 10 micromolar peptide", "excerpt": "FIG. 10. In starving Dictyostelium cultures, several proteins undergo rapid phosphorylation/dephosphorylation events in response to an applied dose of cyclic AMP. The strength of this response is limited by PTEN enzyme activity. This response is visualised with antibody detection of these phosphoproteins on SDS gels prepared from extracted cultures at the time points indicated after the cAMP dose.\nIn starving Dictyostelium cultures, several proteins undergo rapid phosphorylation/dephosphorylation events in response to an applied dose of cyclic AMP. The strength of this initial phosphorylation response is limited by PTEN enzyme activity and is associated with changes in PIP2 and PIP3 inositol phospholipid levels."}},
  "data": [
    {"molecule": "B1", "values": [
      {"measurement": "cell permeation (fluorescence microscopy)", "setting": "[1]", "result": "cell permeable"},
      {"measurement": "streaming/aggregation behaviour of starved wild-type Dictyostelium", "setting": "PTEN [2]", "result": "exhibit the same distinctive behaviour as the PTEN-Null strain"},
      {"measurement": "streaming/aggregation behaviour of starved wild-type Dictyostelium", "setting": "PTEN [2]; listed as Cupid-PTEN", "result": "cells failed to stream together or aggregate"},
      {"measurement": "change of PIP2 level relative to untreated basal level", "setting": "PTEN [3]", "result": "+75%"},
      {"measurement": "change of PIP3 level relative to untreated basal level", "setting": "PTEN [3]", "result": "+150%"},
      {"measurement": "initial phosphorylation response to cyclic AMP versus untreated cultures", "setting": "PTEN [4]", "result": "much stronger initial phosphorylation response"},
      {"measurement": "initial phosphorylation response to cyclic AMP versus untreated cultures", "setting": "PTEN [4]; listed as Cupid-PTEN", "result": "much greater phosphorylation response"}
    ]}
  ]
}
